Assay results reported in patent US20240059769A1 (BIOLOJIC DESIGN, published 2024).
Residue numbers refer to the chain shown, from its start. Numbers in names are those of the source. Where two headings read alike, the source gives them in different places.

Assays:
recombinant human IL-13 [1] = target: T1, recombinant human IL-13 (human, UniProt P35225 35-146); experiment: SPR
T1 construct: also called rh-IL-13; hIL-13

human TSLP [2] = target: T2, human TSLP (human, UniProt Q969D9 29-159); experiment: SPR
T2 construct: also called hTSLP; rhTSLP

[3] = target: T3, recombinant cynomolgus monkey IL-13 (cynomolgus monkey, UniProt Q0PW92 21-132); experiment: SPR
T3 construct: bought; also called rc-IL-13; cIL-13

[4] = target: T4, cynomolgus monkey (cyno) TSLP (cynomolgus monkey, UniProt A0A7N9CAT7 29-159); experiment: SPR
T4 construct: also called cTSLP; cynomolgus TSLP

recombinant human IL-13 [5] = target: T1, recombinant human IL-13; experiment: cell-based or functional assay
human TSLP [6] = target: T2, human TSLP; experiment: cell-based or functional assay
hTSLP-His [7] = target: T5, hTSLP-His (human, UniProt Q969D9 29-159, limits assumed); experiment: cell-based or functional assay
recombinant human IL-13 [8] = target: T1, recombinant human IL-13; experiment: cell-based or functional assay; remark: listed apart in the source
human TSLP [9] = target: T2, human TSLP; experiment: SPR (Biacore T200), antibody captured, cytokine analyte 30-0.153 nM
Experimental: CMS chip was coated with human antibody capture kit to obtain 3000-5000 RU and the antibody, served as the capture, was injected at a flow rate of 10 ul/ml to obtain 250-350 RU.

recombinant human IL-13 [10] = target: T1, recombinant human IL-13; experiment: SPR; remark: listed apart in the source
human TSLP [11] = target: T2, human TSLP; experiment: SPR; remark: listed apart in the source
human TSLP [12] = target: T2, human TSLP; experiment: SPR (Biacore), antibody captured on anti-human Fc chip, hTSLP as analyte, multi-cycle, 1:1 binding model
hIL-13-His [13] = target: T6, hIL-13-His (human, UniProt P35225 35-146); experiment: SPR (Biacore), antibody captured on anti-human Fc chip, hIL-13 as analyte, multi-cycle, 1:1 binding model
T6 construct: bought; also called human IL-13 (Acro Biosystems IL3-H52H4); not shown: His tag

hIL-13-His [14] = target: T6, hIL-13-His; experiment: cell-based or functional assay
human TSLP [15] = target: T2, human TSLP; experiment: SPR (Biacore), antibody captured on anti-human Fc chip, hTSLP as analyte, multi-cycle, 1:1 binding model; remark: listed apart in the source
hIL-13-His [16] = target: T6, hIL-13-His; experiment: SPR (Biacore), antibody captured on anti-human Fc chip, hIL-13 as analyte, multi-cycle, 1:1 binding model; remark: listed apart in the source
recombinant human IL-13 [17] = target: T1, recombinant human IL-13; experiment: SPR; remark: listed apart in the source
human TSLP [18] = target: T2, human TSLP; experiment: SPR; remark: listed apart in the source
[19] = target: T3, recombinant cynomolgus monkey IL-13; experiment: SPR; remark: listed apart in the source
[20] = target: T4, cynomolgus monkey (cyno) TSLP; experiment: SPR; remark: listed apart in the source
hTSLP-His [21] = target: T5, hTSLP-His; experiment: cell-based or functional assay; remark: listed apart in the source
recombinant human IL-13 [22] = target: T1, recombinant human IL-13; experiment: SPR (Biacore T200), antibody captured, hIL-13 as analyte 0.35-8.89 nM
human TSLP [23] = target: T2, human TSLP; experiment: SPR (Biacore T200), antibody captured, hTSLP as analyte 0.231-5.926 nM
hTSLP-His [24] = target: T5, hTSLP-His; experiment: competition ELISA, 7 nM TSLP-His pre-incubated with antibody; competitor Tezepelumab coated
hTSLP-His [25] = target: T5, hTSLP-His; experiment: competition ELISA: antibody titrated and pre-incubated with 7 nM TSLP-His, then on a plate coated with 33.001 (Tezepelumab), anti-His detection; row head on the sheet reads EC50, unit from the axis
recombinant human IL-13 [26] = target: T1, recombinant human IL-13; experiment: SPR; remark: listed apart in the source
human TSLP [27] = target: T2, human TSLP; experiment: SPR; remark: listed apart in the source
recombinant human IL-13 [28] = target: T1, recombinant human IL-13; experiment: cell-based or functional assay; remark: listed apart in the source
[29] = target: T3, recombinant cynomolgus monkey IL-13; experiment: ELISA, ligand coated, IgG 1-1000 nM
human TSLP [30] = target: T2, human TSLP; experiment: ELISA, ligand coated, IgG 1-1000 nM
[31] = target: T4, cynomolgus monkey (cyno) TSLP; experiment: ELISA, ligand coated, IgG 1-1000 nM
recombinant human IL-13 [32] = target: T1, recombinant human IL-13; experiment: SPR (Biacore T200), antibody captured, hIL-13 analyte 20-0.6 nM
Experimental: Recombinant cyno IL-13 (rc-IL-13) was tested at 200 nM with a 2-fold dilution (FIGS. 5C-5D).

hTSLP-His [33] = target: T5, hTSLP-His; experiment: competition ELISA, TSLP-R-Fc coated, 3 nM hTSLP-His pre-mixed with IgG
Text: Wells were then washed three times with TBS 0.05% tween (TBS-T) and blocked with TBS-T containing 2% BSA (w/v).

IL-2 = IL-2 (Homo sapiens (Human), UniProt P60568 21-153); experiment: ELISA, 250 ng coated ligand per well, 100 nM IgG, anti-human Fc-HRP
IL-4 = target: T7, IL-4 (Homo sapiens (Human), UniProt P05112 25-153); experiment: as above
T7 sequence: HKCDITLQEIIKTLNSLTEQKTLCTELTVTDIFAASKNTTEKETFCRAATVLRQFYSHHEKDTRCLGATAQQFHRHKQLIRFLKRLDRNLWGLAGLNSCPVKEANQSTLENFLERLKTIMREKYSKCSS

BSA = BSA (UniProt P02769 25-607); experiment: as above
recombinant human IL-13 [34] = target: T1, recombinant human IL-13; experiment: SPR, steady state, antibody captured, hIL-13 analyte
Experimental: Subsequent to a cycle, the analyte and tested antibody were stripped from the chip and new tested Ab was loaded on the chip as described above. KD was determined at a steady state condition.

human TSLP [35] = target: T2, human TSLP; experiment: SPR (ProteOn XPR36), antibody captured, hTSLP analyte 3.2-0.2 nM

T4 sequence (A0A7N9CAT7 entry or part of it): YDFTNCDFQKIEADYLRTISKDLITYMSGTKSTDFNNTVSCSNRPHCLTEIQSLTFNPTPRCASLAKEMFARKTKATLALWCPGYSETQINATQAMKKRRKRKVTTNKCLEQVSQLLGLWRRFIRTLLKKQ
T6 sequence (P35225 35-146 limits assumed): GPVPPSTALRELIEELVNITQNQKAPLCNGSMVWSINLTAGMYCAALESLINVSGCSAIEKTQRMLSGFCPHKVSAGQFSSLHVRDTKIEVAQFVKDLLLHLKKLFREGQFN
T1 sequence (P35225 35-146 limits assumed): as above
T3 sequence (Q0PW92 entry or part of it): as the sequence (P35225 35-146 limits assumed) above, with G1S, R10K, M42V, S67N, H83R, L100V counted along it
T6 sequence (P35225 35-146 limits assumed): as the sequence (P35225 35-146 limits assumed) above
Sequence of IL-2 (P60568 21-153 limits assumed): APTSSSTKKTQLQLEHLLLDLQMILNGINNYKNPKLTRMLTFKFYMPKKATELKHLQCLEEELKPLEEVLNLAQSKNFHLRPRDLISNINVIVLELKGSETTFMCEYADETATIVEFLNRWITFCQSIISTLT
Sequence of BSA (P02769 25-607 limits assumed): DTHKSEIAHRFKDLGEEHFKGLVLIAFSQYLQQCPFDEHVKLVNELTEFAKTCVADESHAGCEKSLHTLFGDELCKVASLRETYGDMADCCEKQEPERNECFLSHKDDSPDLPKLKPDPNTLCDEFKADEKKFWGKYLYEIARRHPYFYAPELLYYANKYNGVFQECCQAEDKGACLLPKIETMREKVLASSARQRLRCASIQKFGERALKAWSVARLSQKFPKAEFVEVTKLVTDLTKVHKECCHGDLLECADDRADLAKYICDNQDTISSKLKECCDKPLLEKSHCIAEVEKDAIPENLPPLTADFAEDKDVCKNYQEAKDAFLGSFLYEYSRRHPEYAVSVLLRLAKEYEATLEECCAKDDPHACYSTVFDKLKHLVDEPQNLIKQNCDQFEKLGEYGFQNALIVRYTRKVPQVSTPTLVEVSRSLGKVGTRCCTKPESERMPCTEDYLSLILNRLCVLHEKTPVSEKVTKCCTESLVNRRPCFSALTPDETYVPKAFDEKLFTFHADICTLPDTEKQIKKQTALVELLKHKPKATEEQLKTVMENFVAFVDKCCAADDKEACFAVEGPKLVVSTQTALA

B1: BDG38.094 (antibody, V domains shown)
VH: QMQLVESGGGVVQPGRSLRLSCAASGFAFRTYGMHWVRQAPGKGLEWVAVIWDDGSNTHYADSVKGRFTITRDNSKNTLNLQMNSLRAEDTAVYYCVRAPQWYLTAEAFDLWGQGTMVTVSS
VL: SYVLTQPPSVSVAPGETASITCGGNLIGAYLVHWYQQKPGQAPLLVIYDDVDRPARIPERFSGSNSGNTATLTISRVEAGDEADYYCQVWDHNSNHMVFGGGTKLTVL
notes: IgG1
Kd (recombinant human IL-13 [1]): 13.8 pM
koff (recombinant human IL-13 [1]): 9.36e-05 s⁻¹
kon (recombinant human IL-13 [1]): 6.77e+06 M⁻¹ s⁻¹
Kd (human TSLP [2]): 0.0127 pM
koff (human TSLP [2]): 1.82e-07 s⁻¹
kon (human TSLP [2]): 1.44e+07 M⁻¹ s⁻¹
Kd [3]: 270 pM
koff [3]: 0.006 s⁻¹
kon [3]: 2.22e+07 M⁻¹ s⁻¹
Kd [4]: 2.75 pM
koff [4]: 3.18e-05 s⁻¹
kon [4]: 1.16e+07 M⁻¹ s⁻¹
IC50 CD23 (recombinant human IL-13 [5]): 172 pM
IC50 TARC (human TSLP [6]): 356 pM
IC50 [pM], STAT5 phosphorylation inhibition in MUTZ5 cells (hTSLP-His [7]): 27.2 pM
HEK-IL-13 [nM] (IC50, STAT6 reporter) (recombinant human IL-13 [8]): 0.0487 nM
Kd (human TSLP [9]): < 1 pM

B2: BDG38.138 (antibody, human IgG1, lambda, L234A L235A)
heavy: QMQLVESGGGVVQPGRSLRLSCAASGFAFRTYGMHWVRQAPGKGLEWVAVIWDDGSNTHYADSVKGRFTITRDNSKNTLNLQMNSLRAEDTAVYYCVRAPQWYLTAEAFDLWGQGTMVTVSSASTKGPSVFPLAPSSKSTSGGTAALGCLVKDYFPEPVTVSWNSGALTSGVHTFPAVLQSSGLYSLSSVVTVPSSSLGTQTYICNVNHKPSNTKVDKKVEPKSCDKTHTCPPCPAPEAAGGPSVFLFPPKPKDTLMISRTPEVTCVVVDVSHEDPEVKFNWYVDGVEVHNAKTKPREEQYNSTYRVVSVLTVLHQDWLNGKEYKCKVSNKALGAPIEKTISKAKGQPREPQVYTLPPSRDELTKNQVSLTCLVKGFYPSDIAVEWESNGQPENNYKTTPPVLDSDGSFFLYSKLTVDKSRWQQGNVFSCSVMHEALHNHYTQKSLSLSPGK
light: SYVLTQPPSVSVAPGETASITCGGNMIGGYLVHWYQQKPGQAPVLVIYDDVDRPSRIPERFSGSNSGNTATLTISRVEAGDEADYYCQVWDHNSNHMVFGGGTKLTVLGQPKAAPSVTLFPPSSEELQANKATLVCLISDFYPGAVTVAWKADSSPVKAGVETTTPSKQSNNKYAASSYLSLTPEQWKSHRSYSCQVTHEGSTVEKTVAPTECS
notes: human IgG1 L234A/L235A/P329G (LALAPG); also called hIgG1 LALAPG; hIgG1 LALA-PG
Kd (recombinant human IL-13 [10]): 13.4 pM
koff (recombinant human IL-13 [10]): 0.00016 s⁻¹
kon (recombinant human IL-13 [10]): 1.19e+07 M⁻¹ s⁻¹
Kd (human TSLP [11]): 2.85 pM
koff (human TSLP [11]): 4.28e-05 s⁻¹
kon (human TSLP [11]): 1.5e+07 M⁻¹ s⁻¹
Kd [3]: 849 pM
koff [3]: 0.00653 s⁻¹
kon [3]: 7.7e+06 M⁻¹ s⁻¹
Kd [4]: 1.35 pM
koff [4]: 1.85e-05 s⁻¹
kon [4]: 1.37e+07 M⁻¹ s⁻¹
IC50 CD23 (recombinant human IL-13 [5]): 164 pM
IC50 TARC (human TSLP [6]): 2360 pM
IC50 [pM], STAT5 phosphorylation inhibition in MUTZ5 cells (hTSLP-His [7]): 45.2 pM
HEK-IL-13 [nM] (IC50, STAT6 reporter) (recombinant human IL-13 [8]): 0.0286 nM
Kd (human TSLP [12]): 6.61 pM
koff (human TSLP [12]): 0.000212 s⁻¹
kon (human TSLP [12]): 3.2e+07 M⁻¹ s⁻¹
Kd (hIL-13-His [13]): 52.3 pM
koff (hIL-13-His [13]): 0.000455 s⁻¹
kon (hIL-13-His [13]): 8.7e+06 M⁻¹ s⁻¹

B3: BDG38.145 (antibody, human IgG1, lambda, L234A L235A)
heavy: not shown
light: B2 light
notes: human IgG1 L234A/L235A (LALA); same VH/VL as BDG38.138; also called BSG38.145; hIgG1 LALA
IC50, CD23 expression on monocytes (hPBMC, 0.7 nM IL-13) (hIL-13-His [14]): 380 pM
Kd (human TSLP [15]): 7.79 pM
koff (human TSLP [15]): 0.0002 s⁻¹
kon (human TSLP [15]): 2.57e+07 M⁻¹ s⁻¹
Kd (hIL-13-His [16]): 87.9 pM
koff (hIL-13-His [16]): 0.000323 s⁻¹
kon (hIL-13-His [16]): 3.67e+06 M⁻¹ s⁻¹

B4: BDG38.079 (antibody, V domains shown)
VH: B1 VH with D53Y
VL: B1 VL with S19T, L26M, A29G, A55D, N93D, H96T
Kd (recombinant human IL-13 [17]): 31.7 pM
koff (recombinant human IL-13 [17]): 0.000385 s⁻¹
kon (recombinant human IL-13 [17]): 1.22e+07 M⁻¹ s⁻¹
Kd (human TSLP [18]): 2.21 pM
koff (human TSLP [18]): 3.27e-05 s⁻¹
kon (human TSLP [18]): 1.48e+07 M⁻¹ s⁻¹
Kd [19]: 901 pM
koff [19]: 0.0141 s⁻¹
kon [19]: 1.56e+07 M⁻¹ s⁻¹
Kd [20]: 3.97 pM
koff [20]: 4.08e-05 s⁻¹
kon [20]: 1.03e+07 M⁻¹ s⁻¹
IC50, pSTAT5 in MUTZ-5 cell line (hTSLP-His [21]): ~13 pM
IC50 CD23 (recombinant human IL-13 [5]): 71.8 pM
IC50 TARC (human TSLP [6]): 1960 pM
IC50 [pM], STAT5 phosphorylation inhibition in MUTZ5 cells (hTSLP-His [7]): 21.8 pM
HEK-IL-13 [nM] (IC50, STAT6 reporter) (recombinant human IL-13 [8]): 0.0253 nM
Kd (recombinant human IL-13 [22]): 31.7 pM
koff (recombinant human IL-13 [22]): 0.000385 s⁻¹
kon (recombinant human IL-13 [22]): 1.22e+07 M⁻¹ s⁻¹
Kd (human TSLP [23]): 2.21 pM
koff (human TSLP [23]): 3.27e-05 s⁻¹
kon (human TSLP [23]): 1.48e+07 M⁻¹ s⁻¹
IC50 (hTSLP-His [24]): 3630 pM
IC50 (hTSLP-His [25]): 3630 pM

B5: BDG33.023 (antibody, V domains shown)
VH: B1 VH with D53Y, V97A, T105S
VL: SYVLTQPPSVSVAPGQTARITCGGNLIGSKLVHWYQQKPGQAPVLVVYDDSDRPSRIPERFSGSNSGNTATLTISRVEAGDEADYYCQVWDHSSDHVVFGGGTKLTVL
notes: standard IgG; also called BGD33.023; BDG33.0023
Kd (recombinant human IL-13 [26]): 3010 pM
koff (recombinant human IL-13 [26]): 0.00457 s⁻¹
kon (recombinant human IL-13 [26]): 1.52e+06 M⁻¹ s⁻¹
Kd (human TSLP [27]): 62.5 pM
koff (human TSLP [27]): 6.84e-05 s⁻¹
kon (human TSLP [27]): 1.09e+06 M⁻¹ s⁻¹
IC50, HEK-Blue IL-4/IL-13 reporter (0.4 nM rh-IL-13) (recombinant human IL-13 [28]): 1300 pM
IC50, TSLP dependent pSTAT5 activation in MUTZ5 cells (14 pM TSLP) (hTSLP-His [21]): 13 pM
EC50 [29]: 7100 pM
EC50 (human TSLP [30]): 2500 pM
EC50 [31]: 8200 pM
Kd (recombinant human IL-13 [32]): 3650 pM
koff (recombinant human IL-13 [32]): 0.0157 s⁻¹
kon (recombinant human IL-13 [32]): 4.31e+06 M⁻¹ s⁻¹
IC50 (hTSLP-His [33]): 410 pM
binding result (IL-2): no binding (tested: 100 nM)
binding result (IL-4): no binding (tested: 100 nM)
binding result (BSA): no binding (tested: 100 nM)

B6: BDG33.004 (antibody, V domains shown)
VH: B1 VH with A28T, D53Y, T58K, V97A, Y103M, T105V
VL: B5 VL with H92S
notes: human IgG1, lambda light chain; also called BGD33.004; Clone C6 (as IgG1)
Kd (recombinant human IL-13 [34]): 57400 pM
Kd (human TSLP [35]): 3330 pM
koff (human TSLP [35]): 0.00114 s⁻¹
kon (human TSLP [35]): 344000 M⁻¹ s⁻¹

B7: BDG33.003 (antibody, V domains shown)
VH: B1 VH with A28T, D53Y, T58K, V97A, Y103E, L111I
VL: B5 VL with R56L, H92S, H96G
notes: also called BGD33.003; Clone C2 (as IgG1)
Kd (recombinant human IL-13 [34]): 21600 pM
Kd (human TSLP [35]): 4500 pM
koff (human TSLP [35]): 0.00129 s⁻¹
kon (human TSLP [35]): 287000 M⁻¹ s⁻¹
